In patent publication US20110104667 one finds Kd data, which are given here for 1 sequence.

The data set concerns the target infectious prion protein PrPCWD (CWD prion, elk strain E2) (Cervus canadensis (elk)?) (UniProt P67986). Briefly: EMSA. On the set-up: unit not given here. (Mobility shift assays separate free from complexed probe on a gel.)

Chain of infectious prion protein PrPCWD (CWD prion, elk strain E2) (Cervus canadensis (elk)?) (P67986 25-233): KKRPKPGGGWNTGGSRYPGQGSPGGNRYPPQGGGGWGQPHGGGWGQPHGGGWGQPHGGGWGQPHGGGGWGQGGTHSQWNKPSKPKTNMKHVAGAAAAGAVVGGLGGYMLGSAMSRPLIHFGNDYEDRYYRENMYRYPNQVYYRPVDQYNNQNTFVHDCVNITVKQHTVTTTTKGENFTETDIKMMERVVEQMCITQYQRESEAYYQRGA

“TACGACTCACTATAGGGATCCNNNNNNNNNNNNNNNNNNNNNNNNNNNNGAATTCCCTTTAGTGAGGGTT [70-mer DNA randomer library, PrPCWD-retained fraction]” returned a Kd of 6e-05.
